Assay results reported in paper PMC6459857.

Tests used:
Cdk2 [1] = biological target: Cdk2 (UniProt P24941); experiment: single-molecule FRET, dyes at C54 and C93; conditions: reference: unphosphorylated p27-C54-93; sites Y88
Cdk2 [2] = biological target: Cdk2 (UniProt P24941); experiment: single-molecule fluorescence anisotropy, BODIPY at C93; conditions: reference: unphosphorylated p27-C93; sites Y88

Substance	other: fraction in released minor state (Cdk2 [1])	other: fraction in flexible state (Cdk2 [2])
p27Kip1 (p27) 1-198 (from UniProt P46527) pY88-p27-C54-93	weaker; reference 17	
p27Kip1 (p27) 1-198 (from UniProt P46527) pY88-p27-C93		weaker; reference 33
